Laboratory results from the supplement of paper PMC9116672.
± gives the standard deviation of the averaged measurements or the uncertainty stated by the source.

How the values were obtained:
[1] = duplex melting temperature (HRM, EvaGreen); higher = more stable duplex
Experimental: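 Listed DNA strand annealed 1:1 with its complementary strand (95 °C 5 min, 0.1 °C/s to 20 °C). Melted in 1x NNE buffer (500 mM NaCl, 10 mM Na2HPO4, 1 mM EDTA, pH 7.0) with 1x EvaGreen on a LightCycler96 (37 to 97 °C, 0.1 °C/s). Tm is the peak of -dF/dT at the stated total duplex concentration; 4 replicates are averaged. PS oligos are non-stereospecific (Rp/Sp mixtures).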

[2] = duplex formation free energy ΔG50 (Van't Hoff fit of HRM Tm); higher = less stable duplex; details: temperature for dG: 50 °C, NaCl: 500 mM (unadjusted)
Experimental: (§1)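 Duplex of the listed DNA strand with its complement, in 1x NNE buffer (500 mM NaCl, pH 7.0) with 1x EvaGreen. ΔH and ΔS come from a Van't Hoff linear fit of 1/Tm against ln(CT/4) over 1-20 uM, using HRM Tm values.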

[3] = duplex formation enthalpy ΔH (Van't Hoff fit of HRM Tm); higher = less exothermic duplex formation; details: temperature for dG: 50 °C, NaCl: 500 mM (unadjusted)
Experimental: as §1

[4] = duplex formation entropy ΔS (Van't Hoff fit of HRM Tm); higher = smaller entropy loss on duplex formation; details: temperature for dG: 50 °C, NaCl: 500 mM (unadjusted)
Experimental: as §1

[5] = duplex concentration 1 µM, backbone: PO-PO (both strands phosphodiester DNA)
[6] = duplex concentration 1 µM, backbone: PS-PO (listed strand fully phosphorothioate, complement phosphodiester)
[7] = duplex concentration 1 µM, backbone: PS-PS (both strands fully phosphorothioate)
[8] = duplex concentration 2.5 µM, backbone: PO-PO (both strands phosphodiester DNA)
[9] = duplex concentration 2.5 µM, backbone: PS-PO (listed strand fully phosphorothioate, complement phosphodiester)
[10] = duplex concentration 2.5 µM, backbone: PS-PS (both strands fully phosphorothioate)
[11] = duplex concentration 5 µM, backbone: PO-PO (both strands phosphodiester DNA)
[12] = duplex concentration 5 µM, backbone: PS-PO (listed strand fully phosphorothioate, complement phosphodiester)
[13] = duplex concentration 5 µM, backbone: PS-PS (both strands fully phosphorothioate)
[14] = duplex concentration 7.5 µM, backbone: PO-PO (both strands phosphodiester DNA)
[15] = duplex concentration 7.5 µM, backbone: PS-PO (listed strand fully phosphorothioate, complement phosphodiester)
[16] = duplex concentration 7.5 µM, backbone: PS-PS (both strands fully phosphorothioate)
[17] = duplex concentration 10 µM, backbone: PO-PO (both strands phosphodiester DNA)
[18] = duplex concentration 10 µM, backbone: PS-PO (listed strand fully phosphorothioate, complement phosphodiester)
[19] = duplex concentration 10 µM, backbone: PS-PS (both strands fully phosphorothioate)
[20] = duplex concentration 15 µM, backbone: PO-PO (both strands phosphodiester DNA)
[21] = duplex concentration 15 µM, backbone: PS-PO (listed strand fully phosphorothioate, complement phosphodiester)
[22] = duplex concentration 15 µM, backbone: PS-PS (both strands fully phosphorothioate)
[23] = duplex concentration 20 µM, backbone: PO-PO (both strands phosphodiester DNA)
[24] = duplex concentration 20 µM, backbone: PS-PO (listed strand fully phosphorothioate, complement phosphodiester)
[25] = duplex concentration 20 µM, backbone: PS-PS (both strands fully phosphorothioate)
[26] = backbone: PO-PO (both strands phosphodiester DNA)
[27] = backbone: PS-PO (listed strand fully phosphorothioate, complement phosphodiester)
[28] = backbone: PS-PS (both strands fully phosphorothioate)

Sequence: GAGCAGAAGGGGTTGT
- duplex melting temperature [1, 5]: 63.5 ± 1.7 °C
- duplex melting temperature [1, 6]: 58.19 ± 0.23 °C
- duplex melting temperature [1, 7]: 49.7 ± 0.9 °C
- duplex melting temperature [1, 8]: 66.19 ± 0.54 °C
- duplex melting temperature [1, 9]: 60.88 ± 0.2 °C
- duplex melting temperature [1, 10]: 53.7 ± 0.54 °C
- duplex melting temperature [1, 11]: 68.16 ± 0.65 °C
- duplex melting temperature [1, 12]: 63.08 ± 0.15 °C
- duplex melting temperature [1, 13]: 55.97 ± 0.26 °C
- duplex melting temperature [1, 14]: 69.5 ± 0.73 °C
- duplex melting temperature [1, 15]: 64.37 ± 0.09 °C
- duplex melting temperature [1, 16]: 57.22 ± 0.19 °C
- duplex melting temperature [1, 17]: 70.88 ± 0.2 °C
- duplex melting temperature [1, 18]: 65.29 ± 0.073 °C
- duplex melting temperature [1, 19]: 57.97 ± 0.097 °C
- duplex melting temperature [1, 20]: 72.362 ± 0.008 °C
- duplex melting temperature [1, 21]: 66.57 ± 0.019 °C
- duplex melting temperature [1, 22]: 59.215 ± 0.054 °C
- duplex melting temperature [1, 23]: 73.62 ± 0.15 °C
- duplex melting temperature [1, 24]: 67.52 ± 0.11 °C
- duplex melting temperature [1, 25]: 60.08 ± 0.23 °C
- duplex formation free energy ΔG50 [2, 26]: -52 ± 0.711 kJ/mol
- duplex formation free energy ΔG50 [2, 27]: -48.05 ± 0.209 kJ/mol
- duplex formation free energy ΔG50 [2, 28]: -41.1 ± 0.264 kJ/mol
- duplex formation enthalpy ΔH [3, 26]: -286 ± 12.1 kJ/mol
- duplex formation enthalpy ΔH [3, 27]: -297 ± 5.02 kJ/mol
- duplex formation enthalpy ΔH [3, 28]: -267 ± 12.1 kJ/mol
- duplex formation entropy ΔS [4, 26]: -173 ± 8.6 cal/mol/K
- duplex formation entropy ΔS [4, 27]: -184 ± 3.5 cal/mol/K
- duplex formation entropy ΔS [4, 28]: -167 ± 8.8 cal/mol/K

Sequence: CTTTTGTGCGGGTAGC
- duplex melting temperature [1, 5]: 63.84 ± 0.57 °C
- duplex melting temperature [1, 6]: 56.1 °C
- duplex melting temperature [1, 7]: 48.71 ± 0.41 °C
- duplex melting temperature [1, 8]: 65.75 ± 0.34 °C
- duplex melting temperature [1, 9]: 59.24 ± 0.32 °C
- duplex melting temperature [1, 10]: 52.48 ± 0.25 °C
- duplex melting temperature [1, 11]: 68.14 ± 0.14 °C
- duplex melting temperature [1, 12]: 61.53 ± 0.35 °C
- duplex melting temperature [1, 13]: 55.08 ± 0.22 °C
- duplex melting temperature [1, 14]: 69.35 ± 0.31 °C
- duplex melting temperature [1, 15]: 62.94 ± 0.29 °C
- duplex melting temperature [1, 16]: 56.37 ± 0.13 °C
- duplex melting temperature [1, 17]: 70.49 ± 0.15 °C
- duplex melting temperature [1, 18]: 63.93 ± 0.083 °C
- duplex melting temperature [1, 19]: 57.22 ± 0.12 °C
- duplex melting temperature [1, 20]: 71.94 ± 0.13 °C
- duplex melting temperature [1, 21]: 65.13 ± 0.068 °C
- duplex melting temperature [1, 22]: 58.45 ± 0.21 °C
- duplex melting temperature [1, 23]: 73.2 ± 0.36 °C
- duplex melting temperature [1, 24]: 65.98 ± 0.35 °C
- duplex melting temperature [1, 25]: 59.6 ± 0.74 °C
- duplex formation free energy ΔG50 [2, 26]: -52.2 ± 0.879 kJ/mol
- duplex formation free energy ΔG50 [2, 27]: -46.31 ± 0.397 kJ/mol
- duplex formation free energy ΔG50 [2, 28]: -40.14 ± 0.205 kJ/mol
- duplex formation enthalpy ΔH [3, 26]: -294 ± 15.5 kJ/mol
- duplex formation enthalpy ΔH [3, 27]: -284 ± 10 kJ/mol
- duplex formation enthalpy ΔH [3, 28]: -251 ± 10.5 kJ/mol
- duplex formation entropy ΔS [4, 26]: -179 ± 11 cal/mol/K
- duplex formation entropy ΔS [4, 27]: -176 ± 7.2 cal/mol/K
- duplex formation entropy ΔS [4, 28]: -156 ± 7.6 cal/mol/K

Sequence: CTCGGAGGCCCCATTTA
- duplex melting temperature [1, 6]: 60.53 ± 0.43 °C
- duplex melting temperature [1, 7]: 56.27 ± 0.32 °C
- duplex melting temperature [1, 8]: 69.45 ± 0.55 °C
- duplex melting temperature [1, 9]: 63.65 ± 0.44 °C
- duplex melting temperature [1, 10]: 59.31 ± 0.12 °C
- duplex melting temperature [1, 11]: 72.34 ± 0.17 °C
- duplex melting temperature [1, 12]: 66.33 ± 0.23 °C
- duplex melting temperature [1, 13]: 61.51 ± 0.1 °C
- duplex melting temperature [1, 14]: 73.72 ± 0.22 °C
- duplex melting temperature [1, 15]: 67.63 ± 0.23 °C
- duplex melting temperature [1, 16]: 62.63 ± 0.089 °C
- duplex melting temperature [1, 17]: 74.68 ± 0.39 °C
- duplex melting temperature [1, 18]: 68.67 ± 0.14 °C
- duplex melting temperature [1, 19]: 63.34 ± 0.086 °C
- duplex melting temperature [1, 20]: 76.04 ± 0.34 °C
- duplex melting temperature [1, 21]: 69.97 ± 0.17 °C
- duplex melting temperature [1, 22]: 64.55 ± 0.08 °C
- duplex melting temperature [1, 23]: 76.97 ± 0.28 °C
- duplex melting temperature [1, 24]: 70.91 ± 0.14 °C
- duplex melting temperature [1, 25]: 65.31 ± 0.13 °C
- duplex formation free energy ΔG50 [2, 26]: -55 ± 0.795 kJ/mol
- duplex formation free energy ΔG50 [2, 27]: -49.67 ± 0.255 kJ/mol
- duplex formation free energy ΔG50 [2, 28]: -46.94 ± 0.31 kJ/mol
- duplex formation enthalpy ΔH [3, 26]: -288 ± 11.3 kJ/mol
- duplex formation enthalpy ΔH [3, 27]: -276 ± 5.02 kJ/mol
- duplex formation enthalpy ΔH [3, 28]: -309 ± 8.37 kJ/mol
- duplex formation entropy ΔS [4, 26]: -172 ± 7.8 cal/mol/K
- duplex formation entropy ΔS [4, 27]: -167 ± 3.5 cal/mol/K
- duplex formation entropy ΔS [4, 28]: -194 ± 6.1 cal/mol/K

Sequence: ACGGGTCGTTCCGTG
- duplex melting temperature [1, 9]: 60.97 ± 0.26 °C
- duplex melting temperature [1, 10]: 56.07 ± 0.25 °C
- duplex melting temperature [1, 11]: 71.45 ± 0.49 °C
- duplex melting temperature [1, 12]: 63.292 ± 0.043 °C
- duplex melting temperature [1, 13]: 58.82 ± 0.085 °C
- duplex melting temperature [1, 14]: 73.32 ± 0.23 °C
- duplex melting temperature [1, 15]: 64.64 ± 0.1 °C
- duplex melting temperature [1, 16]: 60 ± 0.17 °C
- duplex melting temperature [1, 17]: 74.34 ± 0.26 °C
- duplex melting temperature [1, 18]: 65.62 ± 0.087 °C
- duplex melting temperature [1, 19]: 60.71 ± 0.21 °C
- duplex melting temperature [1, 20]: 75.77 ± 0.15 °C
- duplex melting temperature [1, 21]: 67.006 ± 0.054 °C
- duplex melting temperature [1, 22]: 61.81 ± 0.19 °C
- duplex melting temperature [1, 23]: 76.55 ± 0.13 °C
- duplex melting temperature [1, 24]: 68.03 ± 0.2 °C
- duplex melting temperature [1, 25]: 62.74 ± 0.27 °C
- duplex formation free energy ΔG50 [2, 26]: -54.8 ± 1.55 kJ/mol
- duplex formation free energy ΔG50 [2, 27]: -47.58 ± 0.18 kJ/mol
- duplex formation free energy ΔG50 [2, 28]: -44.1 ± 0.544 kJ/mol
- duplex formation enthalpy ΔH [3, 26]: -288 ± 21.8 kJ/mol
- duplex formation enthalpy ΔH [3, 27]: -280 ± 3.97 kJ/mol
- duplex formation enthalpy ΔH [3, 28]: -296 ± 17.2 kJ/mol
- duplex formation entropy ΔS [4, 26]: -173 ± 15 cal/mol/K
- duplex formation entropy ΔS [4, 27]: -172 ± 2.8 cal/mol/K
- duplex formation entropy ΔS [4, 28]: -186 ± 12 cal/mol/K

Sequence: TCTCGCGGTTCCATTA
- duplex melting temperature [1, 5]: 62.7 ± 1.2 °C
- duplex melting temperature [1, 6]: 56.3 °C
- duplex melting temperature [1, 7]: 50.4 ± 1.6 °C
- duplex melting temperature [1, 8]: 67.08 ± 0.63 °C
- duplex melting temperature [1, 9]: 59.34 ± 0.38 °C
- duplex melting temperature [1, 10]: 54.64 ± 0.23 °C
- duplex melting temperature [1, 11]: 68.7 ± 0.86 °C
- duplex melting temperature [1, 12]: 61.95 ± 0.17 °C
- duplex melting temperature [1, 13]: 57.28 ± 0.084 °C
- duplex melting temperature [1, 14]: 70.24 ± 0.58 °C
- duplex melting temperature [1, 15]: 63.21 ± 0.18 °C
- duplex melting temperature [1, 16]: 58.48 ± 0.13 °C
- duplex melting temperature [1, 17]: 71.59 ± 0.45 °C
- duplex melting temperature [1, 18]: 64.2 ± 0.12 °C
- duplex melting temperature [1, 19]: 59.42 ± 0.15 °C
- duplex melting temperature [1, 20]: 73.26 ± 0.38 °C
- duplex melting temperature [1, 21]: 65.517 ± 0.063 °C
- duplex melting temperature [1, 22]: 60.81 ± 0.1 °C
- duplex melting temperature [1, 23]: 74.35 ± 0.18 °C
- duplex melting temperature [1, 24]: 66.61 ± 0.15 °C
- duplex melting temperature [1, 25]: 61.53 ± 0.15 °C
- duplex formation free energy ΔG50 [2, 26]: -50.8 ± 0.586 kJ/mol
- duplex formation free energy ΔG50 [2, 27]: -45.97 ± 0.293 kJ/mol
- duplex formation free energy ΔG50 [2, 28]: -41.65 ± 0.31 kJ/mol
- duplex formation enthalpy ΔH [3, 26]: -257 ± 10 kJ/mol
- duplex formation enthalpy ΔH [3, 27]: -269 ± 7.11 kJ/mol
- duplex formation enthalpy ΔH [3, 28]: -248 ± 12.1 kJ/mol
- duplex formation entropy ΔS [4, 26]: -152 ± 7 cal/mol/K
- duplex formation entropy ΔS [4, 27]: -165 ± 5.2 cal/mol/K
- duplex formation entropy ΔS [4, 28]: -153 ± 8.8 cal/mol/K
